Holding throughout (assay): HPLC, varied substrate, Michaelis-Menten plot
One data set concerns T1, PostAAO.
T1 construct: gene aao
The class given is biochemical, Pleurotus ostreatus.

Substrate in data set [1]: O=Cc1ccc(C=O)o1
The data set is classed as biochemical, Cyclocybe aegerita. The following applies: pH 6.0.

Substrate in data set [2]: O=Cc1ccc(CO)o1
The data set is classed as biochemical, Cyclocybe aegerita. The note with it: pH 6.0.

This note sets out measurements from publication PMC5874619, “Enzymatic Preparation of 2,5-Furandicarboxylic Acid (FDCA)—A Substitute of Terephthalic Acid—By the Joined Action of Three Fungal Enzymes” (Microorganisms, 2018).

Turning to `O=Cc1ccc(CO)o1` [HMF, 5-hydroxymethylfurfural], in the data set with PostAAO, the Km turned out to be 7.2 mM.

B1: (Cyclocybe aegerita) (protein)
chain: EPGLPPGPLENSSAKLVNDEAHPWKPLRPGDIRGPCPGLNTLASHGYLPRNGVATPVQIINAVQEGLNFDNQAAVFATYAAHLVDGNLITDLLSIGRKTRLTGPDPPPPASVGGLNEHGTFEGDASMTRGDAFFGNNHDFNETLFEQLVDYSNRFGGGKYNLTVAGELRFKRIQDSIATNPNFSFVDFRFFTAYGETTFPANLFVDGRRDDGQLDMDAARSFFQFSRMPDDFFRAPSPRSGTGVEVVIQAHPMQPGRNVGKINSYTVDPTSSDFSTPCLMYEKFVNITVKSLYPNPTVQLRKALNTNLDFFFQGVAAGCTQVFPYGRD
Turning to B1, in data set [1], the Km is on record as 0.82 mM, the kcat worked out at 29.2 s⁻¹ and the specificity constant (kcat/Km) turned out to be 35600 M⁻¹ s⁻¹. In data set [2], the Km was determined as 6.07 mM, the kcat worked out at 222 s⁻¹ and the kcat/Km turned out to be 36600 M⁻¹ s⁻¹.
